# B1: rIL4: Recombinant rat IL4 (R & D Systems), injected intra-cisterna magna (protein, UniProt P20096 25-147, looked up)
# Interleukin-4: CNDSPLREIINTLNQVTEKGTPCTEMFVPDVLTATRNTTENELICRASRVLRKFYFPRDVPPCLKNKSGVLGELRKLCRGVSGLNSLRSCTVNESTLTTLKDFLESLKSILRGKYLQSCTSMS
# Assays:
# Type in all cases: in vivo, rat
# IL-4 = assay: Blocking of M. vaccae effects on hippocampal gene expression by ICM soluble IL-4 receptor alpha; conditions: 5 μg, ICM injection after M. vaccae at day −21, −14, −7
# Experimental: FIG. 25 is a schematic depicting the experimental design configured to develop and validate IL-4 blocking methods in the brain. The schematic depicts the timing of M. vaccae or BBS treatment and intra-cisterna magna (ICM) injections containing soluble IL-4 receptor alpha or vehicle followed by tissue collection and analysis.
# FIG. 26A-C show rtPCR detection in collection tissue samples after ICM injections for IL-4 (A); CD200R1 (B); and CD206 (C).
# In this embodiment, rats were administered M. vaccae or BBC (at day −21, −14, and −7) and then administered 5 μg of soluble IL-4 receptor alpha or a control vehicle.
# Cd200 = assay: Hippocampal Cd200 mRNA expression (real time RT-PCR); conditions: 100 ng i.c.m., 2 h and 24 h post-injection
# Experimental: (§1) Animals: Adult male Sprague-Dawley rats (60-90 d old) were pair-housed with food and water available ad libitum. The colony was maintained at 22° C. on a 12 h light/dark cycle (lights on at 07:00 h).
# (§2) M. vaccae treatment: M. vaccae is a saprophytic environmental mycobacterium, which we have used previously to mitigate stress-induced anxiety-like behavior and peripheral proinflammatory responses. Briefly, whole heat-killed M. vaccae (strain NCTC 11659, batch ENG 1; Bio Elpida; 10 mg/ml) was suspended in sterile borate-buffered saline (BBS) to yield a final concentration of 1 mg/ml. Sterile BBS served as the vehicle control. Consistent with our prior work with M. vaccae, experimental animals received 3× subcutaneous (s.c.) immunizations with 0.1 mg whole heat-killed M. vaccae suspension (0.1 ml) or vehicle (0.1 ml). Injections occurred at −21 d, −14 d and −7 d prior to stress exposure. FIG. 5 provides a timeline of M. vaccae treatment relative to stress exposure, behavioral testing and tissue/microglia collection.
# (§3) Recombinant rat IL4 (rIL4) treatment: Vehicle (sterile 1× PBS+0.1% BSA) or rIL4 (100 ng dissolved in vehicle; R & D Systems) was injected intra-cisterna magna (i.c.m.; 5 μl total volume). Two and 24 h post-injection, hippocampus was collected for gene expression analysis of IL4-sensitive target genes. […]
# Cd200r1 = assay: Hippocampal Cd200r1 mRNA expression (real time RT-PCR); conditions: 100 ng i.c.m.
# Experimental: as §1, §2, §3
# Mrc1 = assay: Hippocampal Mrc1 mRNA expression (real time RT-PCR); conditions: 100 ng i.c.m., 2 h post-injection
# Experimental: as §1, §2, §3
Molecule,Effect of M. vaccae administration on hippocampal gene expression (IL-4),Cd200 expression in hippocampus (Cd200),Cd200r1 expression in hippocampus (Cd200r1; 2 h post-injection),Cd200r1 expression in hippocampus (Cd200r1; 24 h post-injection),Mrc1 expression in hippocampus (Mrc1)
"soluble IL-4 receptor alpha: soluble form of IL-4 receptor alpha, can inhibit IL4-mediated cell proliferation; ICM injection",blocked,,,,
B1,,failed to significantly alter,significant increase,significant increase,significant increase

# From patent US11904007B2, “Protection from stress, anxiety, neuroinflammation, and cognitive dysfunction” (The Regents of the University of Colorado, a body corporate, priority 2018, dated 2024)
